Reference: publication PMC6684406 (Nature structural & molecular biology, 2019)

Target: T1, Pmt1 (protein O-mannosyltransferase 1), C-terminal 3×FLAG-tagged (S. cerevisiae, UniProt P33775 1-817, N-glycan on N390)
T1 sequence (looked up): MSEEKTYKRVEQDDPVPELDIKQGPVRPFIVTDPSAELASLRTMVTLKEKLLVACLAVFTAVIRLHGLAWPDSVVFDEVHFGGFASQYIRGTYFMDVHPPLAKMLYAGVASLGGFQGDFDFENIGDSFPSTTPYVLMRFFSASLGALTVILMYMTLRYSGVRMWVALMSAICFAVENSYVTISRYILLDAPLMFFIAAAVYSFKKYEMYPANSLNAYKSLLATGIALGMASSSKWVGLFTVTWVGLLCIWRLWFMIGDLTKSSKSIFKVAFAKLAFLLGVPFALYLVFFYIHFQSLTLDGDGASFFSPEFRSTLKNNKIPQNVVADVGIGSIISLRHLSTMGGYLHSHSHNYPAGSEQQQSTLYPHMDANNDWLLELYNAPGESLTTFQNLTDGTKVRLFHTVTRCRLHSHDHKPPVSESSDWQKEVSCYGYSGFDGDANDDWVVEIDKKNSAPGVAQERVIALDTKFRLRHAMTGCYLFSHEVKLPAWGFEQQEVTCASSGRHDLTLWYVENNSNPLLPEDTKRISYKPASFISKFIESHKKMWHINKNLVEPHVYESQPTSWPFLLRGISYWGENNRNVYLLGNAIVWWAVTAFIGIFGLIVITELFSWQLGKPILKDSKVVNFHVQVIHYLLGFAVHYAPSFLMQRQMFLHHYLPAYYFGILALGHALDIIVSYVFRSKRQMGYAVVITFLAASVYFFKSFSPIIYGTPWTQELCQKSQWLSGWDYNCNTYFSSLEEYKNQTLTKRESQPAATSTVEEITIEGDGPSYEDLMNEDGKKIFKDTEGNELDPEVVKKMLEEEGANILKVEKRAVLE
Assay: cryo-EM structure

B1: Pmt2 (protein O-mannosyltransferase 2) (enzyme, S. cerevisiae, UniProt P31382 1-759, looked up)
chain: MSSSSSTGYSKNNAAHIKQENTLRQRESSSISVSEELSSADERDAEDFSKEKPAAQSSLLRLESVVMPVIFTALALFTRMYKIGINNHVVWDEAHFGKFGSYYLRHEFYHDVHPPLGKMLVGLSGYLAGYNGSWDFPSGEIYPDYLDYVKMRLFNASFSALCVPLAYFTAKAIGFSLPTVWLMTVLVLFENSYSTLGRFILLDSMLLFFTVASFFSFVMFHNQRSKPFSRKWWKWLLITGISLGCTISVKMVGLFIITMVGIYTVIDLWTFLADKSMSWKTYINHWLARIFGLIIVPFCIFLLCFKIHFDLLSHSGTGDANMPSLFQARLVGSDVGQGPRDIALGSSVVSIKNQALGGSLLHSHIQTYPDGSNQQQVTCYGYKDANNEWFFNRERGLPSWSENETDIEYLKPGTSYRLVHKSTGRNLHTHPVAAPVSKTQWEVSGYGDNVVGDNKDNWVIEIMDQRGDEDPEKLHTLTTSFRIKNLEMGCYLAQTGNSLPEWGFRQQEVVCMKNPFKRDKRTWWNIETHENERLPPRPEDFQYPKTNFLKDFIHLNLAMMATNNALVPDPDKFDYLASSAWQWPTLNVGLRLCGWGDDNPKYFLLGTPASTWASSVAVLAFMATVVILLIRWQRQYVDLRNPSNWNVFLMGGFYPLLAWGLHYMPFVIMSRVTYVHHYLPALYFALIILAYCFDAGLQKWSRSKCGRIMRFVLYAGFMALVIGCFWYFSPISFGMEGPSSNFRYLNWFSTWDIADKQEA
modifications: N-glycan on N131
stoichiometry N: 1
